Experimental data reported in patent US20160039904A1, “STABILIZED SINGLE HUMAN CD4 DOMAINS AND FUSION PROTEINS” (priority 2013, published 2016).

Legend:
Test in all cases: cell-based or functional assay
[1] = target: HIV-1 Env of isolate CNE9 (HIV-1)
[2] = target: HIV-1 Env of isolate CNE16 (HIV-1)
[3] = target: HIV-1 Env of isolate CNE57 (HIV-1)
[4] = target: HIV-1 Env of isolate CH64 (HIV-1)
[5] = target: HIV-1 Env of isolate CNE30 (HIV-1)
[6] = target: HIV-1 Env of isolate CNE20 (HIV-1)
[7] = target: HIV-1 Env of isolate YN192.31 (HIV-1)
[8] = target: HIV-1 Env of isolate GX2010.36 (HIV-1)
[9] = target: HIV-1 Env of isolate AE20 (HIV-1)
[10] = target: HIV-1 Env of isolate CNE65 (HIV-1)
[11] = target: HIV-1 Env of isolate CNE47 (HIV-1)
[12] = target: HIV-1 Env of isolate CNE1 (HIV-1)
[13] = target: HIV-1 Env of isolate CNE46 (HIV-1)
[14] = target: HIV-1 Env of isolate CNE4 (HIV-1)
[15] = target: HIV-1 Env of isolate CNE107 (HIV-1)
[16] = target: HIV-1 Env of isolate AE03 (HIV-1)
[17] = target: HIV-1 Env of isolate CNE17 (HIV-1)
[18] = target: HIV-1 Env of isolate CNE64 (HIV-1)
[19] = target: HIV-1 Env of isolate CNE49 (HIV-1)
[20] = target: HIV-1 Env of isolate CH70 (HIV-1)
[21] = target: HIV-1 Env of isolate CH119 (HIV-1)
[22] = target: HIV-1 Env of isolate CNE15 (HIV-1)
[23] = target: HIV-1 Env of isolate CNE58 (HIV-1)
[24] = target: HIV-1 Env of isolate CNE7 (HIV-1)
[25] = target: HIV-1 Env of isolate CH120 (HIV-1)
[26] = target: HIV-1 Env of isolate CNE53 (HIV-1)
[27] = target: HIV-1 Env of isolate CNE55 (HIV-1)
[28] = target: HIV-1 Env of isolate CNE3 (HIV-1)
[29] = target: HIV-1 Env of isolate CH114 (HIV-1)
[30] = target: HIV-1 Env of isolate CNE59 (HIV-1)
[31] = target: HIV-1 Env of isolate CNE14 (HIV-1)
[32] = target: HIV-1 Env of isolate CH117 (HIV-1)
[33] = target: HIV-1 Env of isolate CH110 (HIV-1)
[34] = target: HIV-1 Env of isolate CH91 (HIV-1)
[35] = target: HIV-1 Env of isolate CNE23 (HIV-1)
[36] = target: HIV-1 Env of isolate CNE6 (HIV-1)
[37] = target: HIV-1 Env of isolate CNE40 (HIV-1)
[38] = target: HIV-1 Env of isolate CNE66 (HIV-1)
[39] = target: HIV-1 Env of isolate CNE11 (HIV-1)
[40] = target: HIV-1 Env of isolate CNE5 (HIV-1)
[41] = target: HIV-1 Env of isolate CNE68 (HIV-1)

T20 (enfuvirtide) (peptide) showed a neutralization IC50 [1] of 1.7 nM, a neutralization IC90 [1] of 14 nM and a neutralization IC50 [2] of 14 nM. The neutralization IC90 [2] was 169 nM, the neutralization IC50 [3] was 2.5 nM and the neutralization IC90 [3] was 24 nM. It also gave a neutralization IC50 [4] of 3.1 nM, a neutralization IC90 [4] of 25 nM and a neutralization IC50 [5] of 26 nM. For the same substance, the neutralization IC90 [5] was 285 nM, the neutralization IC50 [6] was 5.5 nM and the neutralization IC90 [6] was 41 nM. It also gave a neutralization IC50 [7] of 42 nM, a neutralization IC90 [7] of 336 nM and a neutralization IC50 [8] of 255 nM. For the same substance, the neutralization IC90 [8] was over 750 nM, the neutralization IC50 [9] was 212 nM and the neutralization IC90 [9] was 572 nM. It also gave a neutralization IC50 [10] of 5.9 nM, a neutralization IC90 [10] of 78 nM and a neutralization IC50 [11] of 4.9 nM. For the same substance, the neutralization IC90 [11] was 42 nM, the neutralization IC50 [12] was 1.6 nM and the neutralization IC90 [12] was 17 nM. For the same substance, the neutralization IC50 [13] was 26 nM, the neutralization IC90 [13] was 743 nM and the neutralization IC50 [14] was 1.7 nM. The neutralization IC90 [14] was 14 nM, the neutralization IC50 [15] was 3.8 nM and the neutralization IC90 [15] was 45 nM. It also gave a neutralization IC50 [16] of 304 nM, a neutralization IC90 [16] of 510 nM and a neutralization IC50 [17] of 42 nM. For the same substance, the neutralization IC90 [17] was 676 nM, the neutralization IC50 [18] was 1.9 nM and the neutralization IC90 [18] was 16 nM. For the same substance, the neutralization IC50 [19] was 9.1 nM, the neutralization IC90 [19] was 236 nM and the neutralization IC50 [20] was 65 nM. It also gave a neutralization IC90 [20] of over 750 nM, a neutralization IC50 [21] of 2 nM and a neutralization IC90 [21] of 25 nM. For the same substance, the neutralization IC50 [22] was 14 nM, the neutralization IC90 [22] was 157 nM and the neutralization IC50 [23] was 54 nM. It also gave a neutralization IC90 [23] of 745 nM, a neutralization IC50 [24] of 4.3 nM and a neutralization IC90 [24] of 58 nM. It also gave a neutralization IC50 [25] of 11 nM, a neutralization IC90 [25] of 443 nM and a neutralization IC50 [26] of 51 nM. It also gave a neutralization IC90 [26] of 721 nM, a neutralization IC50 [27] of 26 nM and a neutralization IC90 [27] of 549 nM. It also gave a neutralization IC50 [28] of 5.6 nM, a neutralization IC90 [28] of 38 nM and a neutralization IC50 [29] of 102 nM. The neutralization IC90 [29] was over 750 nM, the neutralization IC50 [30] was 1.4 nM and the neutralization IC90 [30] was 17 nM. It also gave a neutralization IC50 [31] of 9.7 nM, a neutralization IC90 [31] of 305 nM and a neutralization IC50 [32] of 2.3 nM. The neutralization IC90 [32] was 34 nM, the neutralization IC50 [33] was 4.3 nM and the neutralization IC90 [33] was 262 nM. The neutralization IC50 [34] was 8.6 nM, the neutralization IC90 [34] was 310 nM and the neutralization IC50 [35] was 15 nM. The neutralization IC90 [35] was 228 nM, the neutralization IC50 [36] was 1.4 nM and the neutralization IC90 [36] was 15 nM. The neutralization IC50 [37] was 4.9 nM, the neutralization IC90 [37] was 108 nM and the neutralization IC50 [38] was 129 nM. The neutralization IC90 [38] was 729 nM, the neutralization IC50 [39] was 3.5 nM and the neutralization IC90 [39] was 36 nM. It also gave a neutralization IC50 [40] of 2.1 nM, a neutralization IC90 [40] of 19 nM and a neutralization IC50 [41] of 32 nM. For the same substance, the neutralization IC90 [41] was 321 nM.
